Paper PMC11718114 (2025)
Each block holds one binder with its values, some of them ahead of it.

Tests used:
[1] = molecular target: PI3Kα: p110α(2-1068) W1057A/I1058A/F1059A + p85(322-600) (human, UniProt P42336 2-1068; P27986 322-600, W1057A | I1058A | F1059A); test: ITC
PI3Kγ(144-1102)-His6 = PI3Kγ(144-1102)-His6 (human, UniProt P48736 144-1102); test: ITC
Sequence of PI3Kγ(144-1102)-His6 (P48736 144-1102): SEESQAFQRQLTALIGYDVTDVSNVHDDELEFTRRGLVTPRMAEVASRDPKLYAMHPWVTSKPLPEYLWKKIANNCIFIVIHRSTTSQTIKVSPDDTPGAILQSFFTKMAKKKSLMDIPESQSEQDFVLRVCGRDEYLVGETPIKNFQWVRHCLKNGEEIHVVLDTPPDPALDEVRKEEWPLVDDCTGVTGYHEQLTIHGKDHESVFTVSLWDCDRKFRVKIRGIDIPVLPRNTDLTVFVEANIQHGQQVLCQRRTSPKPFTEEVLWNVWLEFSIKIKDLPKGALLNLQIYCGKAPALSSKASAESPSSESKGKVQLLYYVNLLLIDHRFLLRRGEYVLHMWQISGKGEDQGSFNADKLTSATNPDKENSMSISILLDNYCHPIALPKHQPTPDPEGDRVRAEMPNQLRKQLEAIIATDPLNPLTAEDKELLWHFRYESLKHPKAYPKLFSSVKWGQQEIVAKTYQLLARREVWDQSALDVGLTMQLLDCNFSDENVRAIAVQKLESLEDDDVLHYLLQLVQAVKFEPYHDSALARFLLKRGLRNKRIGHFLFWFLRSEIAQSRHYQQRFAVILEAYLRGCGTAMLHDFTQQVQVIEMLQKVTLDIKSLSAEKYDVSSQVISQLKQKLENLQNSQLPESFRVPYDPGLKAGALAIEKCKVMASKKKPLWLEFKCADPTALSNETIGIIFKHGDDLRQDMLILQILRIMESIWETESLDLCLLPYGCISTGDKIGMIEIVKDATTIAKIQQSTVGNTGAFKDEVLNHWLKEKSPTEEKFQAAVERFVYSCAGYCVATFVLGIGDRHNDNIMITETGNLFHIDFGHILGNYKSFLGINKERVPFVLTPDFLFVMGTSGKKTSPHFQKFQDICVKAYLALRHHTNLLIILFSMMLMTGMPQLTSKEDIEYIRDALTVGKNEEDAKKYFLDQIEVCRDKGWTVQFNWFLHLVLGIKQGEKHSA

Kd [1]: 27.6 µM
B1: RRAS(22-192) (domain or fragment)
chain: GDPPPSETHKLVVVGGGGVGKSALTIQFIQSYFVSDYDPTIEDSYTKICSVDGIPARLDILDTAGQEEFGAMREQYMRAGHGFLLVFAINDRQSFNEVGKLFTQILRVKDRDDFPVVLVGNKADLESQRQVPRSEASAFGASHHVAYFEASAKLRLNVDEAFEQLVRAVRK

Kd (PI3Kγ(144-1102)-His6): 5.5 µM
B2: RRAS2 (wild type) (domain or fragment)
chain: MAAAGWRDGSGQEKYRLVVVGGGGVGKSALTIQFIQSYFVTDYDPTIEDSYTKQCVIDDRAARLDILDTAGQEEFGAMREQYMRTGEGFLLVFSVTDRGSFEEIYKFQRQILRVKDRDEFPMILIGNKADLDHQRQVTQEEGQQLARQLKVTYMEASAKIRMNVDQAFHELVRVIRKFQ
